Results on 6 substances are retold here after patent US20240165282A1, “CONFORMATIONAL CONSTRAINED SOMATOSTATIN RECEPTOR 3 PEPTIDE LIGANDS AND THEIR CONJUGATES AND USES THEREOF” (STARGET PHARMA LTD., priority 2021, published 2024).

Common to all, as to experiment: Radioligand binding, displacement of 125I-Tyr11-SRIF-14
One assay addresses T1, hSSTR-4 (Homo sapiens, UniProt P31391).
T1 construct: host or cells: Chem-1 (Rat ChemiSCREEN) cells, membrane preparation
To be noted: hSSTR-4. The text has this: (§1) The binding to human cloned receptors SSTR-1, or SSTR-2 or SSTR-3 evaluated in stable and selective transfected CHO (Chinese Hamster Ovary) cells and binding to STSR-4 and SSTR-5 in stable and selective transfected Chem-1 (Rat ChemiSCREEN) cells. […] The binding reactions were filtered, the filters were washed, and the bound radioactivity was counted using a gamma counter.
(§2) The following table depicts the conditions of binding assay to each of the somatostatin receptors used for the evaluations of binding affinities of the tested peptides. All assays were performed by quantitation method of radioligand binding under 25° C. The vehicle was 1% DMSO, the incubation buffer was 25 mM HEPES, pH 7.4, 5 mM MgCl2, 1 mM CaCl2, 0.1% BSA. […] The significance criteria were >50% of max inhibition. […] This specific binding data used for calculation of Bmax values which is the concentration of each of the expressed cloned receptor in its transfected cell system.
(§3) The Results of IC50 values were determined by a non-linear, least squares regression analysis using MathIQ™ (ID Business Solutions Ltd., UK). […] The Hill coefficient (nH), defining the slope of the competitive binding curve, was calculated using MathIQ™.

Another assay concerns the target SSTR5 (Homo sapiens, UniProt P35346). The arrangement: host or cells: Chem-1 (Rat ChemiSCREEN) cells, membrane preparation. To be noted: hSSTR-5.
Excerpt: as §1, §2, §3

The target of the next assay is SSTR1 (Homo sapiens, UniProt P30872). On the set-up: host or cells: CHO (Chinese Hamster Ovary) cells, membrane preparation. To be noted: hSSTR-1.
SSTR1, sequence (P30872 whole entry): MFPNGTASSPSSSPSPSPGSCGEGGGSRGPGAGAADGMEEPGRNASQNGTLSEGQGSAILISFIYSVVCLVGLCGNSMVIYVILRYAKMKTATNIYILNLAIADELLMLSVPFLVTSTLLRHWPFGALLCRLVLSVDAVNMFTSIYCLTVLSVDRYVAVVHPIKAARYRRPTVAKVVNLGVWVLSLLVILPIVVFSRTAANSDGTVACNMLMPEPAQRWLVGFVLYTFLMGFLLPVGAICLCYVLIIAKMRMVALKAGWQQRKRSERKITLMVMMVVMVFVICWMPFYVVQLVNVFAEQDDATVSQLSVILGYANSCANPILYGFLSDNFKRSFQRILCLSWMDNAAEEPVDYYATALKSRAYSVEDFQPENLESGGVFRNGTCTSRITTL
Excerpt: as §1, §2, §3

In the next assay the target is SSTR2 (Homo sapiens, UniProt P30874). On the set-up: host or cells: CHO (Chinese Hamster Ovary) cells, membrane preparation. To be noted: hSSTR-2.
SSTR2, sequence (P30874 whole entry): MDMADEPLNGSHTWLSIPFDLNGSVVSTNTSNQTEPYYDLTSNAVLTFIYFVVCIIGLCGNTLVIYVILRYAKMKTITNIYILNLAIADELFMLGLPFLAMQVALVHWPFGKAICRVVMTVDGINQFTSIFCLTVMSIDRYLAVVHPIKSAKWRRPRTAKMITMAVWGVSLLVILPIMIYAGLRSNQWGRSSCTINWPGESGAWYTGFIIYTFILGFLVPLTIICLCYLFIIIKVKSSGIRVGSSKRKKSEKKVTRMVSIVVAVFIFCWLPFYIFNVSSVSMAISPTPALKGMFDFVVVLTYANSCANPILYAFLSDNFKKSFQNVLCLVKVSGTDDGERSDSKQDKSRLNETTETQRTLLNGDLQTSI
Excerpt: as §1, §2, §3

For the next assay, the target named is SSTR3 (Homo sapiens, UniProt P32745). The arrangement: host or cells: CHO (Chinese Hamster Ovary) cells, membrane preparation. To be noted: for % displacement of [^125I] Tyr^11-SRIF-14: hSSTR-3; for affinity and selectivity to SSTR3 (in words): binding data.
SSTR3, sequence (P32745 whole entry): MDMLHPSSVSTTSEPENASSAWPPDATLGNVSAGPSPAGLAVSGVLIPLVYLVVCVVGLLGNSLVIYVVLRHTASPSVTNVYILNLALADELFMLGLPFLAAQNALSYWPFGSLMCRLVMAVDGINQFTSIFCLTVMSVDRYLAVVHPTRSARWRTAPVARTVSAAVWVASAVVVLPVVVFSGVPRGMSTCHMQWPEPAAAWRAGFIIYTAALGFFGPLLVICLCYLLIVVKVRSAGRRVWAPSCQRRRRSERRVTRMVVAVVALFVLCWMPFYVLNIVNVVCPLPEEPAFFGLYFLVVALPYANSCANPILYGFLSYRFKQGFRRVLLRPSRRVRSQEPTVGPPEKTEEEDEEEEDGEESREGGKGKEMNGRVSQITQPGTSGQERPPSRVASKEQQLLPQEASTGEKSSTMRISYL
Excerpt: as §1, §2, §3

*1 amine or outer side, *2 acyl side, *3 side chain or, on linkers, in order; H or OH if unused. Bridges are numbered along the chain shown (N, C = ends). [ ]: non-standard residue; d: D form. The star is where a group is joined. DOTA = O=C(O)CN1CCN(CC(=O)O)CCN(CC(=O)*)CCN(CC(=O)O)CC1; N(2-mercaptoethyl)Gly = O=C(CN(CCS[*:3])[*:1])[*:2]; Orn = NCCC[C@H](N)C(=O)O; GABA = NCCCC(=O)O

SSTR5, sequence (P35346 whole entry): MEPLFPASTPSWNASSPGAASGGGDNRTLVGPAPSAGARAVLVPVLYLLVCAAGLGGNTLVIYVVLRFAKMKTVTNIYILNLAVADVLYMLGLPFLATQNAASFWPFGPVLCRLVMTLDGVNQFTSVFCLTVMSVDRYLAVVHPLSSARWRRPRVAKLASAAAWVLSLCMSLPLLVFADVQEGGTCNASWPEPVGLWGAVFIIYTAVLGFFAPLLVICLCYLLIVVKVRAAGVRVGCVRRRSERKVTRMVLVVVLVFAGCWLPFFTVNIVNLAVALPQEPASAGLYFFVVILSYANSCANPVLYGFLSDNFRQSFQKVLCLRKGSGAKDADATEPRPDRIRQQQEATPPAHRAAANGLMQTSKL
T1 sequence (P31391 whole entry): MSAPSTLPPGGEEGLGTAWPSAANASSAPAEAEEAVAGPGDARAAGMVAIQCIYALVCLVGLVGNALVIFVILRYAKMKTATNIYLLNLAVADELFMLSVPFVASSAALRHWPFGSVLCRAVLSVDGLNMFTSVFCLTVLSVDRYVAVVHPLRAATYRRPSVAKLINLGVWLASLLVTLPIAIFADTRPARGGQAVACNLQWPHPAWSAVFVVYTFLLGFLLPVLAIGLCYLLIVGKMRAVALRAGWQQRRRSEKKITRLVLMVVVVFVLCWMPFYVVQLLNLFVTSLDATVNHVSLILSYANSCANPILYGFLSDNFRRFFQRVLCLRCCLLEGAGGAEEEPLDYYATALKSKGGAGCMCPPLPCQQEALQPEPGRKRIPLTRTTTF

For “DOTA-Lys^1-D-Phe^2-Arg^3-Gly^4-Asp^5-Glu^6-GABA-D-Phe^7-Lys^8-Cys^9-Phe^10-D-Trp^11-Lys^12- Thr^13-Phe^14-NTEG^15-NH2 (cyclo 1-6; cyclo 9-15) ({DOTA}-K[dF]RGDE[GABA][dF]KCF[dW]KTF[N(2-mercaptoethyl)Gly]-NH2; lactam 1-6; disulfide 10-16; not fully specified; printed as DOTA-Lys1-D-Phe2-Arg3-Gly4-Asp5-Glu6-GABA-D-Phe7-Lys8-Cys9-Phe10-D-Trp11-Lys12- Thr13-Phe14-NTEG15-NH2 (cyclo 1-6, cyclo 9-15); numbers in words are those of the source; also: cyclo 1-6 listed as disulfide between Lys1 and Glu6) [SEQ ID NO: 17]”, the “% displacement of [^125I] Tyr^11-SRIF-14” value with hSSTR-4 (at 1 nM (in brackets)) was 7%; in the assay with hSSTR-4 (at 10 nM) it was 5%; with SSTR5 (at 1 nM (in brackets)), 15%; with SSTR5 (at 10 nM), 13%; with SSTR1 (at 1 nM (in brackets)), 9%; with SSTR1 (at 10 nM), 15%. The “% displacement of [^125I] Tyr^11-SRIF-14” value with SSTR2 (at 1 nM (in brackets)) was 11%; in the assay with SSTR2 (at 10 nM) it was 8%; with SSTR3 (at 1 nM (in brackets)), 68%; with SSTR3 (at 10 nM) it was 91%.
For “DOTA-D-Phe^1-Glu^2-Orn^3-Cys^4-Phe^5-D-Trp^6-Lys^7-Thr^8-Phe^9-NTEG^10-NH2 (cyclo 4-10) ({DOTA}-[dF]E[Orn]CF[dW]KTF[N(2-mercaptoethyl)Gly]-NH2; disulfide 4-10; SMILES C[C@@H](O)[C@@H]1NC(=O)[C@H](CCCCN)NC(=O)[C@@H](Cc2c[nH]c3ccccc23)NC(=O)[C@H](Cc2ccccc2)NC(=O)[C@@H](NC(=O)[C@H](CCCN)NC(=O)[C@H](CCC(=O)O)NC(=O)[C@@H](Cc2ccccc2)NC(=O)CN2CCN(CC(=O)O)CCN(CC(=O)O)CCN(CC(=O)O)CC2)CSSCCN(CC(N)=O)C(=O)[C@H](Cc2ccccc2)NC1=O) [SEQ ID NO: 23]”, the “% displacement of [^125I] Tyr^11-SRIF-14” value in the assay with hSSTR-4 (at 1 nM (in brackets)) was 0(0) %; with hSSTR-4 (at 10 nM), 0(0) %; with SSTR5 (at 1 nM (in brackets)) it was 0(0) %; with SSTR5 (at 10 nM) it was 0(0) %; in the assay with SSTR1 (at 1 nM (in brackets)) it was 4%; in the assay with SSTR1 (at 10 nM), 6%. Besides, the “% displacement of [^125I] Tyr^11-SRIF-14” value with SSTR2 (at 1 nM (in brackets)) is listed as 0(0) %; with SSTR2 (at 10 nM), 0(0) %; with SSTR3 (at 1 nM (in brackets)), 19%; in the assay with SSTR3 (at 10 nM), 56%.
As to “(DOTA)2-Lys^1-D-Phe^2-Arg^3-Cys^4-Phe^5-D-Trp^6-Lys^7-Thr^8-Phe^9-NTEG^10-NH2 (cyclo 3-9) ({DOTA}-K(DOTA)[dF]RCF[dW]KTF[N(2-mercaptoethyl)Gly]-NH2; disulfide 4-10 (inferred); not fully specified; printed as (DOTA)2-Lys1-D-Phe2-Arg3-Cys4-Phe5-D-Trp6-Lys7-Thr8-Phe9-NTEG10-NH2 (cyclo 3-9)) [SEQ ID NO: 16]”, the “% displacement of [^125I] Tyr^11-SRIF-14” value is given as 0(0) % with hSSTR-4 (at 1 nM (in brackets)); 0(0) % with hSSTR-4 (at 10 nM); 0% in the assay with SSTR5 (at 1 nM (in brackets)); 3% with SSTR5 (at 10 nM); 0% with SSTR1 (at 1 nM (in brackets)); 5% with SSTR1 (at 10 nM). Also, the “% displacement of [^125I] Tyr^11-SRIF-14” value was found to be 6% with SSTR2 (at 1 nM (in brackets)), 2% in the assay with SSTR2 (at 10 nM), 47% in the assay with SSTR3 (at 1 nM (in brackets)) and 88% with SSTR3 (at 10 nM).
Consider “DOTA-D-Phe^1-Orn^2-Cys^3-Phe^4-D-Trp^5-Lys^6-Thr^7-Phe^8-NTEG^9-NH2 cyclo 3-9 [SEQ ID NO: 21]”, for which the “% displacement of [^125I] Tyr^11-SRIF-14” value on hSSTR-4 (at 1 nM (in brackets)) is 9(9) %; on hSSTR-4 (at 10 nM) it was 9(9) %; at SSTR5 (at 1 nM (in brackets)), 0(0) %; at SSTR5 (at 10 nM), 0(0) %; at SSTR1 (at 1 nM (in brackets)), 23%; on SSTR1 (at 10 nM), 22%. Also, the “% displacement of [^125I] Tyr^11-SRIF-14” value on SSTR2 (at 1 nM (in brackets)) is listed as 0%; on SSTR2 (at 10 nM), 2%; at SSTR3 (at 1 nM (in brackets)), 59%; at SSTR3 (at 10 nM), 93%. Besides, the “affinity and selectivity to SSTR3 (in words)” value on SSTR3 is “did not interfere with the affinity and selectivity to SSTR3”.
As for “DOTA-D-Phe^1-Arg^2-Cys^3-Tyr^4-D-Trp^5-Lys^6-Thr^7-Phe^8-NTEG^9-NH2 (cyclo 3-9) ({DOTA}-[dF]RCY[dW]KTF[N(2-mercaptoethyl)Gly]-NH2; disulfide 3-9; SMILES C[C@@H](O)[C@@H]1NC(=O)[C@H](CCCCN)NC(=O)[C@@H](Cc2c[nH]c3ccccc23)NC(=O)[C@H](Cc2ccc(O)cc2)NC(=O)[C@@H](NC(=O)[C@H](CCCNC(=N)N)NC(=O)[C@@H](Cc2ccccc2)NC(=O)CN2CCN(CC(=O)O)CCN(CC(=O)O)CCN(CC(=O)O)CC2)CSSCCN(CC(N)=O)C(=O)[C@H](Cc2ccccc2)NC1=O) [SEQ ID NO: 25]”, the “% displacement of [^125I] Tyr^11-SRIF-14” value in the assay with hSSTR-4 (at 1 nM (in brackets)) was determined as 5%; with hSSTR-4 (at 10 nM) it was 8%; in the assay with SSTR5 (at 1 nM (in brackets)), 6%; in the assay with SSTR5 (at 10 nM), 16%; with SSTR1 (at 1 nM (in brackets)), 1%; in the assay with SSTR1 (at 10 nM), 15%. In addition, the “% displacement of [^125I] Tyr^11-SRIF-14” value is on record as 0(0) % with SSTR2 (at 1 nM (in brackets)), 0(0) % in the assay with SSTR2 (at 10 nM), 65% in the assay with SSTR3 (at 1 nM (in brackets)) and 94% with SSTR3 (at 10 nM).
Turning to “DOTA-D-Phe^1-Glu^2-Glu^3-Orn^4-Cys^5-Phe^6-D-Trp^7-Lys^8-Thr^9-Phe^10-NTEG^11-NH2 (cyclo 5-11) ({DOTA}-[dF]EE[Orn]CF[dW]KTF[N(2-mercaptoethyl)Gly]-NH2; disulfide 5-11; SMILES C[C@@H](O)[C@@H]1NC(=O)[C@H](CCCCN)NC(=O)[C@@H](Cc2c[nH]c3ccccc23)NC(=O)[C@H](Cc2ccccc2)NC(=O)[C@@H](NC(=O)[C@H](CCCN)NC(=O)[C@H](CCC(=O)O)NC(=O)[C@H](CCC(=O)O)NC(=O)[C@@H](Cc2ccccc2)NC(=O)CN2CCN(CC(=O)O)CCN(CC(=O)O)CCN(CC(=O)O)CC2)CSSCCN(CC(N)=O)C(=O)[C@H](Cc2ccccc2)NC1=O) [SEQ ID NO: 22]”, the “% displacement of [^125I] Tyr^11-SRIF-14” value with hSSTR-4 (at 1 nM (in brackets)) is on record as 0%; in the assay with hSSTR-4 (at 10 nM), 3%; in the assay with SSTR5 (at 1 nM (in brackets)) it was 0(0) %; in the assay with SSTR5 (at 10 nM) it was 0(0) %; in the assay with SSTR1 (at 1 nM (in brackets)), 8%; in the assay with SSTR1 (at 10 nM), 7%. Besides, the “% displacement of [^125I] Tyr^11-SRIF-14” value with SSTR2 (at 1 nM (in brackets)) was 0(0) %; in the assay with SSTR2 (at 10 nM), 0(0) %; with SSTR3 (at 1 nM (in brackets)), 0%; with SSTR3 (at 10 nM), 49%. The “affinity and selectivity to SSTR3 (in words)” value with SSTR3 was “did not interfere with the affinity and selectivity to SSTR3”.
